In paper PMC7746762:

Molecular target: FliC-NikRC flagellin variant (flagellin with its D3 domain replaced by the C-terminal Ni-binding domain of NikR) (S. typhimurium | E. coli) (UniProt P0A6Z6)
Test: dynamic light scattering; purified FliC-NikRC in solution; conditions not shown (Fig. S1 in the SI)

“FliC-NikRC flagellin variant (flagellin with its D3 domain replaced by the C-terminal Ni-binding domain of NikR) (from UniProt P0A6Z6 50-133)” gave a stoichiometry N of 4.
